Experimental data taken from patent publication US8119594B1, “Method of modulating integrin mediated cellular activity and agents useful for same” (Inter-K Pty Limited, priority 1999, dated 2012).
Values belong to the molecule of their own block, whether it stands above or below them. Where a SMILES comes first, the peptide text is derived from it. Where no end group is shown, it is not given here. The star is where a group is joined. Biotin = O=C1N[C@H]2[C@H](CS[C@H]2CCCCC(=O)*)N1

Columns and labels:
[1] = target: T1, ERK2 (Mus musculus, UniProt P63085); test: ELISA binding of ERK2 to biotinylated integrin cytoplasmic domain peptides; conditions: for binding of GST.ERK2 to shorter test peptides: range of peptide concentrations, seq. 4 compared to fragment 2, seq. 3 compared to seq. 4, FIG. 20; for binding of ERK2 (thrombin cleaved): ERK2 cleaved from GST-ERK2 by thrombin, compared to seq. 4, FIG. 23; for binding of ERK2 to integrin β subunit cytoplasmic domain peptides: corrected for non-specific binding, FIG. 34; for binding of non-phosphorylated ERK2: over a range of concentrations of ERK2, compared to fragments 1, 3 and 4, FIG. 18
T1 construct: made in house
T1 sequence (P63085 whole entry, the tested form may be a part): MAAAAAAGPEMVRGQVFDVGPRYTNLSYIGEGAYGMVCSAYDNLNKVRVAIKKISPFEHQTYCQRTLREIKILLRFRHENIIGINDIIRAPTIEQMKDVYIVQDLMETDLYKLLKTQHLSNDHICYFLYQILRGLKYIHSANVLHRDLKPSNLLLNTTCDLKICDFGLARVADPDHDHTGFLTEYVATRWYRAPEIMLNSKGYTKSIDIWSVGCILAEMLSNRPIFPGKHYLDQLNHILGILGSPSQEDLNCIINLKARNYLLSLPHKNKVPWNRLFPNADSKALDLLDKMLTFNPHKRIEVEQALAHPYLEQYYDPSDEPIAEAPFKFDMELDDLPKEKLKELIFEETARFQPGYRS
Description: Peptide fragments corresponding to regions of the cytoplasmic tail domain of the β6 subunit were screened in an enzyme-linked immunosorbent assay (ELISA) for binding with ERK2. The […] β6 cytoplasmic tail is shown in FIG. 16 as are the amino acid sequences for the cytoplasmic domains of the β1 to β3 subunits. In particular, four synthetic peptides designated fragment 1 to fragment 4 were prepared and biotinylated at the N-terminal end of each, respectively (Auspep Pty Ltd, Melbourne Australia).
(§1) Overlapping biotinylated fragments 1 to 4 were coated onto streptavidin coated polystyrene plates (Pierce, Rockford Ill. USA, Cat No. 15125) and the ELISA performed substantially according to manufacturers instructions. Briefly, wells are washed with 3×200 μl of wash buffer (TBS, 0.1% BSA, 0.05% Tween 20 or SuperBlock™ blocking buffer in TBS, Pierce, Prod. No. 37535) prior to addition of biotinylated peptides (100 μl) and incubation for 1 hr at room temperature to allow for capture of the peptides on the plate. Following another washing step, peptides were overlayed with GST-ERK, ERK (or JNK-1) alone at a volume of 100 μl per well, and the plates incubated for a further 1 hr at room temperature before removal of any unbound ERK by further washing.
Binding of ERK to the peptides is detected using 100 μl anti-ERK1/2 mAb SC1647 (Santa Cruz) as the primary antibody at a dilution of 1:700 (isotype matched antibody IgG2b is used as a control). This is followed by another washing step and addition of 100 μl rabbit anti-mouse antibody (Biorad) conjugated to alkaline phosphatase at a concentration of 1:1000 for 30 minutes again at room temperature. A 100 μl aliquot of detection reagent (alkaline phosphatase detection kit-Biorad) is then introduced into each well after a final washing step and allowed to react for 15-30 minutes at room temperature in the dark before absorbance is measured at 405 nm. All dilutions of peptides, MAP kinase and antibodies were performed using the wash buffer. GST-ERK is a fusion protein consisting of ERK coupled to glutathione-S-transferase and purified from host cells transfected with pGEX vector.

[2] = tested on: SW480 β6-expressing colon cancer cells; conditions: for inhibition of cell proliferation (WST-1): SW480 β6-expressing, 30 μm, 24 hours, serum-free medium, FIG. 29
Description: HT29 and SW480 β6-expressing colon cancer cell lines were seeded into wells of 96-well microtitre plates (Nunclon) in Dulbecco's Modified Eagle's Medium (DMEM) supplemented with 10% foetal bovine serum, glutamine, Hepes, and antibiotics. Seeding cell densities were 3×10^3 cells per triplicate well for each condition tested and after 24 hours incubation of cell cultures in 5% CO2, 100% humidity at 37° C., the culture medium was exchanged for serum-free DMEM medium supplemented with insulin, transferrin, selenous acid, hydrocortisone, non-essential amino acids, glutamine, Hepes and antibiotics containing either peptide [sequence] (SEQ ID NO. 2) alone or penetratin-peptide complex at a concentration of 10 μm for HT29 cells or 30 μm for SW480 β6-expressing cells. Cell cultures were incubated for a further 24 hours following which cultures were photographed (Kodak Techpan Film at 100 ASA setting) and the experiments terminated by addition of the cell proliferation reagent WST-1 (Boehringer Mannheim) to monitor effects of the peptide on cell growth.
SW480 mock and SW480 β6 transfectants were cultured in DMEM medium supplemented with 1% foetal bovine serum in the presence of 20 μM seq. […] Percentage inhibition was assessed by the WST-1 colorimetric dehydrogenase assay described in Example 6.
Growth inhibition of SW480 cells expressing full length wild-type β6 exposed to seq.4 coupled to penetratin or [sequence] (SEQ ID NO. 2) peptide coupled to penetratin (5, 10, 20, 30 μM in DMEM minus foetal bovine serum) but which peptide contained alanine substitutions at the four positions indicated was assessed.

[3] = tested on: HT29 colon cancer cells; test: WST-1 cell proliferation assay in HT29 cells; assay type: cell-based, human; conditions: 10 μm, 24 hours, serum-free medium, FIG. 28
Description: HT29 and SW480 β6-expressing colon cancer cell lines were seeded into wells of 96-well microtitre plates (Nunclon) in Dulbecco's Modified Eagle's Medium (DMEM) supplemented with 10% foetal bovine serum, glutamine, Hepes, and antibiotics. […] The cell proliferation reagent WST-1 is designed to be used for the non-radioactive, spectrophotometric quantification of cell growth and viability in proliferation and chemosensitivity assays. […]
In particular, at the termination of experiments, 30 μl of WST-1 was added to 270 μl culture medium volume in each microtitre well and the colour change quantitated in an ELISA plate reader by measuring absorbance of the formazan product at 450 nm (using a reference wavelength of more than 600 nm). The mean absorbance readings from triplicate wells (±standard error of the means) after subtraction of background control wells (culture medium without cells) was determined.

[4] = tested on: p42/p44 MAP kinase activity in HT29 cells; test: MAP kinase assay in HT29 cells after serum stimulation; assay type: cell-based, human; conditions: HT29 wild-type; inhibitor 40 μM added one hour before serum
Description: (§2) Cultures of WiDr and HT29 mock and antisense β6 transfectants were established by seeding 1×10^6 cells/5 ml of culture medium in 25 cm^2 tissue culture flasks. Cells were incubated at 37° C. in humidified CO2 for 24 hours before serum starvation in serum-free medium for the next 16 hours. Foetal calf serum was then added to a final concentration of 10% for 30 mins before MAP kinase assays were performed. […] The ability of cells to transfer phosphate from [γ^32P]-ATP to a synthetic peptide that contains specifically a p42/p44 MAP kinase phosphorylation site was measured as described in the manufacturer's instructions. [^32P]-labelled peptides were spotted onto PE1-cellulose paper, unbound radioactivity was washed with 75 mM phosphoric acid and bound [^32P]-labelled peptides were measured by liquid scintillation counting. Protein estimation was performed on each cell lysate used and enzyme activity calculated as described in the manufacturer's instructions. […]
(§3) The effect of MEK (MAP kinase kinase) inhibitors U0126 and PD98059 on MAP kinase activity in WiDr and HT29 wild-type cells was tested in the absence/presence of serum. […] Serum was then added for 30 min and MAP kinase activity assessed before and after addition of serum. […]

[5] = tested on: p42/p44 MAP kinase activity in WiDr cells; test: MAP kinase assay in WiDr cells after serum stimulation; assay type: cell-based, human; conditions: WiDr wild-type; inhibitor 40 μM added one hour before serum
Description: as §2, §3

[6] = tested on: gelatinase B secretion by SW480 β6 transfectants; test: Gelatinase B secretion by gelatin zymogram; assay type: cell-based, human; conditions: 40 μM; 48 hours; serum-free; compared with controls
Description: SW480 β6 transfectants were cultured under serum-free conditions for 48 hours in the absence/presence of the MEK inhibitor PD98059 (40 μM) or DMSO (vehicle control). Tumour-conditioned medium was assayed for gelatinase B by analysis of equal protein loads in a gelatin zymogram.

[7] = target: T2, JNK-1 (Homo sapiens, UniProt P45983); test: ELISA binding of JNK-1 to β6 cytoplasmic tail peptide; conditions: JNK-1 0.05-1.5 μm/100 μl; increasing peptide concentrations; FIG. 24
T2 construct: purchased Santa Cruz
T2 sequence (P45983 whole entry, species assumed): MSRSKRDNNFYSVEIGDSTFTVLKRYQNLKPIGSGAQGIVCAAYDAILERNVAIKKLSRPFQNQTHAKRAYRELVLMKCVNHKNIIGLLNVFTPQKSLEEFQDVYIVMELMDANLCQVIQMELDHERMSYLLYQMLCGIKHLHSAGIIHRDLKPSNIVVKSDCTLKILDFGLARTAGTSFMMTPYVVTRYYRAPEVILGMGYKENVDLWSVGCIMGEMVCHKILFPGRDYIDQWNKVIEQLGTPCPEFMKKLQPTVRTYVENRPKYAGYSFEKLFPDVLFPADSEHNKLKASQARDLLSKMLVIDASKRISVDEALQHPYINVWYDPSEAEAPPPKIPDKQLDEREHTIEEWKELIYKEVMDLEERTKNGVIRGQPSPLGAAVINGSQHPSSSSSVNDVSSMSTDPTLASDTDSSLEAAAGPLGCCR
Description: as §1
Briefly, 0.05-1.5 μm/100 μl of JNK-1 (Santa Cruz) was aliquoted into wells of a 96 well culture place containing increasing concentrations of the β6 cytoplasmic domain tail peptide used in Example 3. For comparison purposes, non-phosphorylated GST-ERK2 (0.05-1.5 μm/100 μl) was aliquoted into wells containing β6 cytoplasmic tail peptide or peptide fragments 1 or 2, respectively. Binding of JNK-1 was detected using mouse anti-JNK-1 mAb SC 474-G (Santa Cruz) and HRP-conjugated goat anti-mouse antibody.

Molecule: RSKAKWQTGT (HOMO SAPIENS) [seq. 3, 10 mer test peptide from the β6 cytoplasmic tail]
binding of GST.ERK2 to shorter test peptides [1]: substantially less

Molecule: RSKAK (HOMO SAPIENS) [5 mer peptide]
binding of ERK2 (thrombin cleaved) [1]: Negligible binding

Molecule: N#CC(=C(/N)Sc1ccccc1N)/C(C#N)=C(\N)Sc1ccccc1N [U0126]
serum-stimulated MAP kinase activity [4]: inhibitable | serum-stimulated MAP kinase activity [5]: inhibitable

Molecule: COc1cccc(-c2cc(=O)c3ccccc3o2)c1N [PD98059]
serum-stimulated MAP kinase activity [4]: inhibitable | gelatinase B secretion [6]: reduced gelatinase B secretion | serum-stimulated MAP kinase activity [5]: inhibitable

Molecule: CC[C@H](C)[C@H](NC(=O)[C@H](CCCCN)NC(=O)[C@@H](NC(=O)[C@H](CCC(N)=O)NC(=O)[C@@H](N)CCCNC(=N)N)[C@@H](C)CC)C(=O)N[C@@H](Cc1c[nH]c2ccccc12)C(=O)N[C@@H](Cc1ccccc1)C(=O)N[C@@H](CCC(N)=O)C(=O)N[C@@H](CC(N)=O)C(=O)N[C@@H](CCCNC(=N)N)C(=O)N[C@@H](CCCNC(=N)N)C(=O)N[C@@H](CCSC)C(=O)N[C@@H](CCCCN)C(=O)N[C@@H](Cc1c[nH]c2ccccc12)C(=O)N[C@@H](CCCCN)C(=O)N[C@@H](CCCCN)C(=O)N[C@@H](CCCNC(=N)N)C(=O)N[C@@H](CO)C(=O)N[C@@H](CCCCN)C(=O)N[C@@H](C)C(=O)N[C@@H](CCCCN)C(=O)N[C@@H](Cc1c[nH]c2ccccc12)C(=O)N[C@@H](CCC(N)=O)C(=O)N[C@H](C(=O)NCC(=O)N[C@H](C(=O)N[C@@H](CC(N)=O)C(=O)N1CCC[C@H]1C(=O)N[C@@H](CC(C)C)C(=O)N[C@@H](Cc1ccc(O)cc1)C(=O)N[C@@H](CCCNC(=N)N)C(=O)O)[C@@H](C)O)[C@@H](C)O [penetratin-peptide complex] (H-RQIKIWFQNRRMKWKKRSKAKWQTGTNPLYR-OH; N-terminus and C-terminus assumed)
growth inhibition, dose response ([2]; SW480 full length wild-type β6, 5, 10, 20, 30 μM in DMEM minus foetal bovine serum, FIG. 33): progressive inhibition of proliferation in a dose-response manner | inhibition of cell proliferation (WST-1) [2]: effective in inhibiting cell proliferation | inhibition of cell proliferation (WST-1) [3]: effective in inhibiting cell proliferation

Molecule: RSKAKWQTGTNPLYRGSTST (Biotin-RSKAKWQTGTNPLYRGSTST) [fragment 2, N-terminally biotinylated synthetic peptide of the β6 cytoplasmic tail]
binding of non-phosphorylated GST.ERK2 to peptide fragment ([1]; GST.ERK2 0.25 μg/100 μl, peptide 1 μg/100 μl, FIG. 17): significant binding | binding of non-phosphorylated ERK2 [1]: Significant binding

Molecule: RSKAKNPLYR (HOMO SAPIENS) [10(4), 4 is omitted]
binding of ERK2 (thrombin cleaved) [1]: Comparable binding

The next lines start with results.

binding of ERK2 to integrin β subunit cytoplasmic domain peptides [1]: also found
Molecule: RARAKWDTANNPLYK (HOMO SAPIENS) [β3, peptide corresponding to a region of the β3 cytoplasmic domain]

binding of ERK2 to integrin β subunit cytoplasmic domain peptides [1]: significant binding | binding of GST.ERK2 to shorter test peptides [1]: no reduction in binding
Molecule: RSKAKWQTGTNPLYR (HOMO SAPIENS) [seq. 4, 15 mer fragment of the β6 cytoplasmic domain]
inhibition of cell proliferation (WST-1) [2]: Only the carrier penetratin-peptide complex was effective | inhibition of cell proliferation (WST-1) [3]: Only the carrier penetratin-peptide complex was effective

binding of ERK2 to integrin β subunit cytoplasmic domain peptides [1]: also found
Molecule: RSRARYEMASNPLYR (HOMO SAPIENS) [β5, peptide corresponding to a region of the β5 cytoplasmic domain]

binding of non-phosphorylated ERK2 [1]: Significant binding | binding of JNK-1 [7]: Significant binding
Molecule: β6 cytoplasmic tail peptide: peptide of the cytoplasmic tail domain of the integrin β6 subunit (HDRKEVAKFEAERSKAKWQTGTNPLYRGSTSTFKNVTYKHREKQKVDLSTDS; HOMO SAPIENS)
